In publication doi:10.1101/2022.03.26.485915 (bioRxiv, 2022):

Target: the molecule itself
Test: in-vitro amyloid aggregation

B1: Envelope domain III (EDIII) protein of ZIKV (domain or fragment, Zika virus)
chain: MGVSYSLCTAAFTFTKIPAETLHGTVTVEVQYAGTDGPCKVPAQMAVDMQTLTPVGRLITANPVITESTENSKMMLELDPPFGDSYIVIGVGEKKITHHWHRSGSTIGKGQFYLNELE
B1: binds.
